Laboratory results from PMC10290082.

Target: endogenous MDM2 of SH-SY5Y cells (human (endogenous in SH-SY5Y)) (UniProt Q00987)
Assay: AlphaScreen or HTRF; AlphaLISA of extracts of SH-SY5Y cells (MG132), endogenous proteins; D1V2Z-CaptSure acceptor beads and biotinylated HT7 on donor beads; background from Tau-KO SH-SY5Y cells

Sequence of endogenous MDM2 of SH-SY5Y cells (human (endogenous in SH-SY5Y)) (Q00987 whole entry): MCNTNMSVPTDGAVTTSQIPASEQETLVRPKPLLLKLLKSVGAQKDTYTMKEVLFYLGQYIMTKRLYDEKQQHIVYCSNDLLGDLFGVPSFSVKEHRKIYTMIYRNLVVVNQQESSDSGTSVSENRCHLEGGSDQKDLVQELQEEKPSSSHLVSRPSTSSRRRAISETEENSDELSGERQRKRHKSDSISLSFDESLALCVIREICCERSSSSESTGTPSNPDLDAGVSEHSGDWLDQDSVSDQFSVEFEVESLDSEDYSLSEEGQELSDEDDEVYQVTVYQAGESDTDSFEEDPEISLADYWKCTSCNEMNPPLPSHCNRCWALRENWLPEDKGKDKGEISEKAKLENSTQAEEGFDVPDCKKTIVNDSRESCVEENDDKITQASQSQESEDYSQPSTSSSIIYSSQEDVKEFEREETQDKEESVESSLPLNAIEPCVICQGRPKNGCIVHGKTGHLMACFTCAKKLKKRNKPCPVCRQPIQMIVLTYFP

endogenous Tau of SH-SY5Y cells (from UniProt P10636 1-758) (natural protein)
AlphaLISA signal, fold over background of Tau-KO SH-SY5Y cells: 2.7 fold
